{"source": "paper PMC8200828", "about": "“Phylogenetic and Structural Analysis of NIN-Like Proteins With a Type I/II PB1 Domain That Regulates Oligomerization for Nitrate Response” (Frontiers in Plant Science, 2021)", "proteins": {"B1": {"name": "Arabidopsis thaliana NLP7 (AtNLP7) PB1 domain, wild type (domain or fragment, UniProt Q84TH9 863-945, looked up)", "chain": "TVTIKASYKDDIIRFRISSGSGIMELKDEVAKRLKVDAGTFDIKYLDDDNEWVLIACDADLQECLEIPRSSRTKIVRLLVHDV", "notes": "NIN-like protein 7 (AtNLP7), Arabidopsis thaliana, PB1 domain at the C-terminus of AtNLP7; PCR-amplified from plasmid pDL2Nx-NLP7 PB1 with the printed primers PB1-EcoRI and PB1-HindIII, subcloned into pET28a; A thrombin cleavage site follows the N-terminal His6 tag; no cleavage step is described and the purified protein is called 6xHis-NLP7 PB1 (15.6 kDa); also called NLP7 PB1wt; 6xHis-NLP7 PB1 …"}}, "key": {"[1]": {"biological_target": "the molecule itself", "experiment": "dynamic light scattering; protein at 2 mg/mL, after SEC, 25 °C; self-association"}, "[2]": {"biological_target": "the molecule itself", "experiment": "SEC; Superdex S-75 in buffer C (20 mM Tris pH 8.8, 0.5 M NaCl, 10% glycerol, 5 mM GSH, 1 mM TCEP), calibrated with gel filtration standard markers; self-association"}}, "data": [{"protein": "B1", "values": [{"measurement": "stoichiometry N", "setting": "[1]", "result": 4}, {"measurement": "stoichiometry N", "setting": "[2]", "result": 2}]}]}
